According to publication PMC12287439 (Nature Communications, 2025):
Changes are numbered by the printed parent chain. Names may count otherwise.

Assays:
[1] = molecular target: LYCHOS (Homo sapiens, UniProt Q7Z3F1); test: BRET recruitment of GATOR1; type: cell-based
[2] = molecular target: T1, LYCHOS (Homo sapiens, UniProt Q7Z3F1, Y57A); test: cryo-EM structure; type: binding
T1 sequence (Q7Z3F1 1-870 Y57A): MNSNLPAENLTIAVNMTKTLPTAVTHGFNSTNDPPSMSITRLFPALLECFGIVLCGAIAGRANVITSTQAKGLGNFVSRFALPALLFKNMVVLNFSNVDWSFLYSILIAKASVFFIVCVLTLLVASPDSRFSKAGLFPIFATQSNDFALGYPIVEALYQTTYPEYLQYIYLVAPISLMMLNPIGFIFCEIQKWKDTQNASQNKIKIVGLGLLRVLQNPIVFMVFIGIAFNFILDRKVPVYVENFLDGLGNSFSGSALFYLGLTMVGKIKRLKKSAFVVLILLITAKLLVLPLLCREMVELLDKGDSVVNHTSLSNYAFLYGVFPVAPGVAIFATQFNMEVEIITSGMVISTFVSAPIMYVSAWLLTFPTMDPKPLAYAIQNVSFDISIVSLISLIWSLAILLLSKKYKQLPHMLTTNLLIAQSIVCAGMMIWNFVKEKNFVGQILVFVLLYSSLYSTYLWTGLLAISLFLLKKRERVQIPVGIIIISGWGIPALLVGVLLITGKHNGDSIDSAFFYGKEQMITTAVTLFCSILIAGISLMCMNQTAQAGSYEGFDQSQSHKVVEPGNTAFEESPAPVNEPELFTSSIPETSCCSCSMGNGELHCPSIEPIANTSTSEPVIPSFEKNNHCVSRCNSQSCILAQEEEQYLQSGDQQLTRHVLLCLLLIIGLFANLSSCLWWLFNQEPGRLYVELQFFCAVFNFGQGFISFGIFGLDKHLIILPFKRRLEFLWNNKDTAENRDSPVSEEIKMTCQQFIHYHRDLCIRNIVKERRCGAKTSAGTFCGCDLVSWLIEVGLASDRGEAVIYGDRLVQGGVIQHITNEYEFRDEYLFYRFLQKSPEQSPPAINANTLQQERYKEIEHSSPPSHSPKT

[3] = molecular target: the molecule itself; test: cryo-EM structure

Sequence of LYCHOS (Homo sapiens, UniProt Q7Z3F1) (Q7Z3F1 whole entry): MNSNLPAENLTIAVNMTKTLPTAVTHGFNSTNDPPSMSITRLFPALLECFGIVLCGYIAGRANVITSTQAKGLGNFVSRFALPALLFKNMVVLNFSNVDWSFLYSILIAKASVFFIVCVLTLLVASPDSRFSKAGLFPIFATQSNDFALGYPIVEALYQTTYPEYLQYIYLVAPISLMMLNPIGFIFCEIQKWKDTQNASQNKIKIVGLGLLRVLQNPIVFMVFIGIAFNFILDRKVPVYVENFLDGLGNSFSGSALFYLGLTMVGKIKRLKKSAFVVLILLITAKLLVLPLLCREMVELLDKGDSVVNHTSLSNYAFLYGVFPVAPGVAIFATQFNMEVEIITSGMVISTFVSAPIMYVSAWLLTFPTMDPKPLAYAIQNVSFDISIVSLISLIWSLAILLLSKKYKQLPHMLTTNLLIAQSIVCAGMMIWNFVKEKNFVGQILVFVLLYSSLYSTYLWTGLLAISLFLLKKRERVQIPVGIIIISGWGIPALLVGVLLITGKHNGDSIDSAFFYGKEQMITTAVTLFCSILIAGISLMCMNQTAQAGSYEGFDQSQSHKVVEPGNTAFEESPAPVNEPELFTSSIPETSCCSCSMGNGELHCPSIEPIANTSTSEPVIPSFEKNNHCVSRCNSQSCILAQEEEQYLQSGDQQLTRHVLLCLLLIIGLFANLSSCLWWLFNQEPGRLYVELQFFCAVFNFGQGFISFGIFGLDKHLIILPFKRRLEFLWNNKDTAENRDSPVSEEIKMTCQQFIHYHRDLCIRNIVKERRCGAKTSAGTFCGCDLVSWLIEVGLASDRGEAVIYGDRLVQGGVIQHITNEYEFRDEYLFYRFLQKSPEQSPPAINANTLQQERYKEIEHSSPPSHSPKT
Sequence of LYCHOS (Homo sapiens, UniProt Q7Z3F1) (Q8WTW4 whole entry partner): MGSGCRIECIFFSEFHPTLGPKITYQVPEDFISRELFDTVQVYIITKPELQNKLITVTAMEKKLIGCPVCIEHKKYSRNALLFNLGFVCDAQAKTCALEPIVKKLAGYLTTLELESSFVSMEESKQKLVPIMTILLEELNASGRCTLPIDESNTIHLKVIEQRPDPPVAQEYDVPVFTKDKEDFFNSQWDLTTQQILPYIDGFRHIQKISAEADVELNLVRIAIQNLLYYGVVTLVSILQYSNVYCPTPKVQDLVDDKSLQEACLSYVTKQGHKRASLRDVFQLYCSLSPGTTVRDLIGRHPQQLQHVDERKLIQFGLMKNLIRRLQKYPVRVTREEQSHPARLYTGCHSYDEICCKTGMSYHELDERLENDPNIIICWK
Sequence of LYCHOS (Homo sapiens, UniProt Q7Z3F1) (Q12980 whole entry partner): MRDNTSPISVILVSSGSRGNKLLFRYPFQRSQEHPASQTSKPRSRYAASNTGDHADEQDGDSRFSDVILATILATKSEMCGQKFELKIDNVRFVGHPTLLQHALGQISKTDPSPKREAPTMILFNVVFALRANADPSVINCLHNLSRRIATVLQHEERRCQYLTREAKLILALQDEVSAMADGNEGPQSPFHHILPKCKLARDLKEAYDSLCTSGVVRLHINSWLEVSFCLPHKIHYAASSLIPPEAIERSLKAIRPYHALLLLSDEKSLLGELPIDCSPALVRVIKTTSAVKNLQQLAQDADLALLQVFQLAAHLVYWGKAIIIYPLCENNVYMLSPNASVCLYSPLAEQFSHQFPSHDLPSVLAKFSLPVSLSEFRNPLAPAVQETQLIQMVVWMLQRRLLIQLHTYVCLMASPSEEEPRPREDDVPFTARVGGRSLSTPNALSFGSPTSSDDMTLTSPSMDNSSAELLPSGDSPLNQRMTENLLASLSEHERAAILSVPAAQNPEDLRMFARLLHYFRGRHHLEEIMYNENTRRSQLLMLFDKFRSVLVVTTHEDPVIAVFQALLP
Sequence of LYCHOS (Homo sapiens, UniProt Q7Z3F1) (O75140 whole entry partner): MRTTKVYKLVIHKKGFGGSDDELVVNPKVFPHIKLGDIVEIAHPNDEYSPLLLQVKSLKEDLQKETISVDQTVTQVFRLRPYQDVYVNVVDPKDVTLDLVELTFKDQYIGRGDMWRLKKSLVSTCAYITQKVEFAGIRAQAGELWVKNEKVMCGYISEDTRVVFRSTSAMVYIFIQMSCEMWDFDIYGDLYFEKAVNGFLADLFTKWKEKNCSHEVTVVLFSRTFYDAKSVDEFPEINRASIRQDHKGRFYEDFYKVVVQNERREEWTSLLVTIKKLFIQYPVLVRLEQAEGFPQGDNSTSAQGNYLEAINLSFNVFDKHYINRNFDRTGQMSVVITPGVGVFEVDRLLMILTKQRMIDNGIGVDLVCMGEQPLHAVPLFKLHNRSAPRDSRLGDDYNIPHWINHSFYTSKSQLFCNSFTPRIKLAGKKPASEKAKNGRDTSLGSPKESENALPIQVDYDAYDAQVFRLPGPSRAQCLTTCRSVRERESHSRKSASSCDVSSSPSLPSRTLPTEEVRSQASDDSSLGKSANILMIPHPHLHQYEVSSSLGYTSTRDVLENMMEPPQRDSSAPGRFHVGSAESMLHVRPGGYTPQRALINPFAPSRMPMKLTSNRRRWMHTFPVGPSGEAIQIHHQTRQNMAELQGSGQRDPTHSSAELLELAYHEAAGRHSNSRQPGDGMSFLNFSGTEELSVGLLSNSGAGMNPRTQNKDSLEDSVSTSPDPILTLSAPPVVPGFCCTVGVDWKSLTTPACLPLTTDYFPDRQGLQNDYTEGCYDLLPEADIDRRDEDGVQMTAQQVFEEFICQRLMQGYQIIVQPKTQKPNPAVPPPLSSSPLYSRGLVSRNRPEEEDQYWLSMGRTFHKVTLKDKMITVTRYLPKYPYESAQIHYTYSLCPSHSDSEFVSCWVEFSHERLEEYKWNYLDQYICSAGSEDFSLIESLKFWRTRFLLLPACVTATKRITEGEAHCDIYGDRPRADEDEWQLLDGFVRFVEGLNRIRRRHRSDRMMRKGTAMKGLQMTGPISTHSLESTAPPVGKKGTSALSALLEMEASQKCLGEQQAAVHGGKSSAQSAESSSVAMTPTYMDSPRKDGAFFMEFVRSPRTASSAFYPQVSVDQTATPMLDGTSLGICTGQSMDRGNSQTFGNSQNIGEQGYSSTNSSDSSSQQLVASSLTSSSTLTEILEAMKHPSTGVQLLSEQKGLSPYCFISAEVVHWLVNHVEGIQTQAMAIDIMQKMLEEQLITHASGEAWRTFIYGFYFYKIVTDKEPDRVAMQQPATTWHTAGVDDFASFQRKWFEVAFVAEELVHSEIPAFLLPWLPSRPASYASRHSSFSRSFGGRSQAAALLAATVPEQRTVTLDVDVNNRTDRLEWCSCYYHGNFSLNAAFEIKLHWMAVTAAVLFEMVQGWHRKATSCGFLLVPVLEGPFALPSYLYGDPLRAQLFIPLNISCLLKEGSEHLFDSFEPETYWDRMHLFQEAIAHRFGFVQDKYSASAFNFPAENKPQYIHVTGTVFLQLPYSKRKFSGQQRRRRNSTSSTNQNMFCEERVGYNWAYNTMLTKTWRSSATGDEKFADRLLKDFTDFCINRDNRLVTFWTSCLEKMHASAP

For CC(C)CCC[C@@H](C)[C@H]1CC[C@H]2[C@@H]3CC=C4C[C@@H](O)CC[C@]4(C)[C@H]3CC[C@]12C [cholesterol], which EC50 [1] is on record?
The EC50 was 165 nM.

Which “cryo-EM structure (3.21 Å, contracted state)” value [2] does the source give for CC(C)CCC[C@@H](C)[C@H]1CC[C@H]2[C@@H]3CC=C4C[C@@H](OC(=O)CCC(=O)O)CC[C@]4(C)[C@H]3CC[C@]12C [CHS, cholesteryl hemisuccinate] here?
Its value is “We found there exist two CHS molecules in the CBC, with which GLD is locked in contracted state”.

B1: LYCHOSPLD (permease-like domain of human LYCHOS) (domain or fragment)
chain: MNSNLPAENLTIAVNMTKTLPTAVTHGFNSTNDPPSMSITRLFPALLECFGIVLCGYIAGRANVITSTQAKGLGNFVSRFALPALLFKNMVVLNFSNVDWSFLYSILIAKASVFFIVCVLTLLVASPDSRFSKAGLFPIFATQSNDFALGYPIVEALYQTTYPEYLQYIYLVAPISLMMLNPIGFIFCEIQKWKDTQNASQNKIKIVGLGLLRVLQNPIVFMVFIGIAFNFILDRKVPVYVENFLDGLGNSFSGSALFYLGLTMVGKIKRLKKSAFVVLILLITAKLLVLPLLCREMVELLDKGDSVVNHTSLSNYAFLYGVFPVAPGVAIFATQFNMEVEIITSGMVISTFVSAPIMYVSAWLLTFPTM
With B1 as the molecule, how does the “stoichiometry N” value [3] read?
The value was 2.

B2: human LYCHOS, wild type (lysosomal cholesterol signaling protein) (natural protein, UniProt Q7Z3F1 1-870, looked up)
chain: T1 sequence (Q7Z3F1 1-870 Y57A) with A57Y
How did the “stoichiometry N” value [3] turn out when B2 was run?
The value was 2.

B3: human LYCHOS Y57A (natural protein, UniProt Q7Z3F1 1-870, looked up)
chain: T1 sequence (Q7Z3F1 1-870 Y57A)
How did the “stoichiometry N” value [3] turn out when B3 was run?
Its value is 2.
